From patent US20260167706A1, “ANTI-ADRENOMEDULLIN (ADM) ANTIBODY OR ANTI-ADM ANTIBODY FRAGMENT OR ANTI-ADM NON-IG SCAFFOLD FOR USE IN THERAPY OR PREVENTION OF SHOCK” (ADRENOMED AG, priority 2022, published 2026)

Tests used:
[1] = biological target: human recombinant adrenomedullin receptor (CRLR + RAMP3) (human)
[2] = biological target: human recombinant adrenomedullin receptor (CRLR + RAMP3) (human); remark: listed apart in the source

- IC50 (read off the curve); cAMP, % inhibition, 0.67 nM mADM as agonist [1]: 2 µM
- IC50 (read off the curve); cAMP, % inhibition, 5.63 nM hADM as agonist [2]: 0.2 µM
Substance: human ADM 22-52 (from UniProt P35318) (peptide)
